Laboratory results published in patent publication US6825035, “Compositions and methods for modulating expression within smooth muscle cells” (Setagon, Inc.).

Target: T1, Serum response factor (SRF) (UniProt D3ZHH8 D3ZHH8:1-504)
T1 sequence: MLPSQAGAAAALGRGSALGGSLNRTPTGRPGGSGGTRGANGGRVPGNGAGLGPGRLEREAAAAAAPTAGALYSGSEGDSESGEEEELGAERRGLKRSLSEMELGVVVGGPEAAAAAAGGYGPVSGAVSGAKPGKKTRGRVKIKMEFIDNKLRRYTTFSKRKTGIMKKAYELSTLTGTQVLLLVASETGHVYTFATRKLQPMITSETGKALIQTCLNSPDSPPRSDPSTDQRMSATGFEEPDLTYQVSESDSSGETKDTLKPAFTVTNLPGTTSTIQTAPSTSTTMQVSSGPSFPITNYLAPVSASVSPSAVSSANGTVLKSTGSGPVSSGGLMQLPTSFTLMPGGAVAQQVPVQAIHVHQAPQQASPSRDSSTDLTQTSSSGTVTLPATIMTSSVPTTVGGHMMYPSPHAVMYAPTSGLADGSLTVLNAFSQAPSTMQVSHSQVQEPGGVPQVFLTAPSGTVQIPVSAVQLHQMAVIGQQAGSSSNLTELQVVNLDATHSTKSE
Assay: EMSA; supershift with SRF antibody; binds more avidly than CArG A and B; 10 mM Tris pH 7.5, 100 mM KCl, 50 mM NaCl, 1 mM EDTA, poly(dI-dC), room temp
Settings: protein: synthetic; tags: endogenous SRF in rat aortic SMC nuclear extract, identified by SRF antibody supershift; chain copies: 2; label: 32P end label
Procedure: 6.1.4 Preparation of Nuclear Extracts, In Vitro Synthesis of SRF, and Electromobility Shift Assays Nuclear extracts were prepared from confluent rat aortic SMCs using the methods of Dignam (Dignam J D, et al., *Nucleic Acids Res.* 1983;11:1475–1489). Culture conditions matched those used for transient transfection assays. Oligonucleotides used in EMSAs were purchased commercially (Operon Technologies) and include the following: CArG A, 5'-[…]-3' (SEQ ID NO:14); CArG B, 5'-[…]-3' (SEQ ID NO:15); Intronic CArG, 5'-[…]-3' (SEQ ID NO:16). Probes were ^32P end labeled and annealed. All probes were purified on a 6% acrylamide gel, eluted in TE, and precipitated twice in ethanol.
EMSAs were performed with 20 µl of binding reaction that included=30 pg of labeled probe, 5 µg of SMC nuclear extract 0.2 to 0.6 µg of poly (dI-dC) in 1×binding buffer (10 mM TrisHCl (pH 7.5), 100 mM KCI, 50 mM NaCl, 1 mM dithiothreitol, 1 mM EDTA, and 5% glycerol). Following a 30 min incubation at room temperature, the samples were subjected to electrophoresis on a 5% polyacrylamide gel, which had been pre-run at 170V for 1 hr. Electrophoresis was performed at 170V in 0.5×TBE (45 mM Tris Borate, 1 mM EDTA). Gels were dried and exposed to film for 24–72 h at −70 ° C. […]

B1: Intronic CArG (SM alpha-actin first intron) (dsDNA)
DNA 1: TTTTACCTAATTAGGAAATG
DNA 2: CATTTCCTAATTAGGTAAAA
  binding result: binds
